# B1: Beta-crystallin A4 (Homo sapiens), P53673 (parent)
# chain: MTLQCTKSAGPWKMVVWDEDGFQGRRHEFTAECPSVLELGFETVRSLKVLSGAWVGFEHAGFQGQQYILERGEYPSWDAWGGNTAYPAERLTSFRPAACANHRDSRLTIFEQENFLGKKGELSDDYPSLQAMGWEGNEVGSFHVHSGAWVCSQFPGYRGFQYVLECDHHSGDYKHFREWGSHAPTFQVQSIRRIQQ
# partner: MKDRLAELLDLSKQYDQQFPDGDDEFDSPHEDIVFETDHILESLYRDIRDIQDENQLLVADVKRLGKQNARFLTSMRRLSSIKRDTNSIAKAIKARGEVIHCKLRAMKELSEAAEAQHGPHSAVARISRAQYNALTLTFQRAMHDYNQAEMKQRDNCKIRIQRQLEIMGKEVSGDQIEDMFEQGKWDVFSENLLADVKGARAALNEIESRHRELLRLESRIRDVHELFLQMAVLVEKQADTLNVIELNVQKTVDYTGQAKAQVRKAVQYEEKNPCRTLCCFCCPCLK
# B2: Mothers against decapentaplegic homolog 3 (Homo sapiens), P84022 (parent)
# chain: MSSILPFTPPIVKRLLGWKKGEQNGQEEKWCEKAVKSLVKKLKKTGQLDELEKAITTQNVNTKCITIPRSLDGRLQVSHRKGLPHVIYCRLWRWPDLHSHHELRAMELCEFAFNMKKDEVCVNPYHYQRVETPVLPPVLVPRHTEIPAEFPPLDDYSHSIPENTNFPAGIEPQSNIPETPPPGYLSEDGETSDHQMNHSMDAGSPNLSPNPMSPAHNNLDLQPVTYCEPAFWCSISYYELNQRVGETFHASQPSMTVDGFTDPSNSERFCLGLLSNVNRNAAVELTRRHIGRGVRLYYIGGEVFAECLSDSAIFVQSPNCNQRYGWHPATVCKIPPGCNLKIFNNQEFAALLAQSVNQGFEAVYQLTRMCTIRMSFVKGWGAEYRRQTVTSTPCWIELHLNGPLQWLDKVLTQMGSPSIRCSSVS
# partner: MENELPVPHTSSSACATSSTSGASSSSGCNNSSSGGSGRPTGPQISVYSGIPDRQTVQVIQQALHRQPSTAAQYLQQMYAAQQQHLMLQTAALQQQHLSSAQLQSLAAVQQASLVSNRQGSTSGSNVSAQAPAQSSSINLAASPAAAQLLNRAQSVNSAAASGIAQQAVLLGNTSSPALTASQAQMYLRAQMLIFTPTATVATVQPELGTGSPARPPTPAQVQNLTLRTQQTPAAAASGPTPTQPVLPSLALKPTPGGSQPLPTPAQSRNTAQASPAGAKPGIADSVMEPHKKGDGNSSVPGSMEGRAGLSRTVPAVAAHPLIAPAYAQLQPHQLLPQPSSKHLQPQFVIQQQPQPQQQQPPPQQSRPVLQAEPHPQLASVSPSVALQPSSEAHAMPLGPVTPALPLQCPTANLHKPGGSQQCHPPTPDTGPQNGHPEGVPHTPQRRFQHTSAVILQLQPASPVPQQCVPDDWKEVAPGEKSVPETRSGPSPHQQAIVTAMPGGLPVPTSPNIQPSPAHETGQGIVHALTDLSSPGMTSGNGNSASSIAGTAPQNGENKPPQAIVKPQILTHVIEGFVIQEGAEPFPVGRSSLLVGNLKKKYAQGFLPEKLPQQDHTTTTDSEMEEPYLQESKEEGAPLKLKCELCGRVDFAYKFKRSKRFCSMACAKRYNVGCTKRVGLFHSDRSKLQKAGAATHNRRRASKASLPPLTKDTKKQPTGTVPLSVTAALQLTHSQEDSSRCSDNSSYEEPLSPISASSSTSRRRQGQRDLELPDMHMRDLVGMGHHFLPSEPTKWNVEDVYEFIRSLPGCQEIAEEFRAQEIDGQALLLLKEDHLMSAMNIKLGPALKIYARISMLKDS
# B3: Adiponectin (Homo sapiens), Q15848 (parent)
# chain: MLLLGAVLLLLALPGHDQETTTQGPGVLLPLPKGACTGWMAGIPGHPGHNGAPGRDGRDGTPGEKGEKGDPGLIGPKGDIGETGVPGAEGPRGFPGIQGRKGEPGEGAYVYRSAFSVGLETYVTIPNMPIRFTKIFYNQQNHYDGSTGKFHCNIPGLYYFAYHITVYMKDVKVSLFKKDKAMLFTYDQYQENNVDQASGSVLLHLEVGDQVWLQVYGEGERNGLYADNDNDSTFTGFLLYHDTN
# partner: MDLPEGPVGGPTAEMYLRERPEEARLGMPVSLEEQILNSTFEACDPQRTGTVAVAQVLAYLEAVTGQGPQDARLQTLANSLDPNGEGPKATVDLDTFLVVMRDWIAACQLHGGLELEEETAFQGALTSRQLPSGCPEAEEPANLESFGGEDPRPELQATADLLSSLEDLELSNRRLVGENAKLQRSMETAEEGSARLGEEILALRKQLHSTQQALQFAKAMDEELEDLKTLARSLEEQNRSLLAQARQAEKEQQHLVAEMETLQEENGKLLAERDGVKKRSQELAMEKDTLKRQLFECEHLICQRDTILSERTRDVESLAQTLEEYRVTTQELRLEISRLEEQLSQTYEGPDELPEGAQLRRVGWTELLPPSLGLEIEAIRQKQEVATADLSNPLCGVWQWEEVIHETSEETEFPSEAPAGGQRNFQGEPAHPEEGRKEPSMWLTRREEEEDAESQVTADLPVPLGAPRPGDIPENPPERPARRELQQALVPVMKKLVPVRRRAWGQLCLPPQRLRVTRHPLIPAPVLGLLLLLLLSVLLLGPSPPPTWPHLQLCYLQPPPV
# Variants of: B1
# Conditions: with stx11_human STX11, O75558
row,Variant,effect of a mutation on the interaction
1,MTLQCTKSAGPWKMVVWDEDGFQGRRHEFTAECPSVLELGFETVRSLKVLSGAWVGFEHAGFQGQQYIPERGEYPSWDAWGGNTAYPAERLTSFRPAACANHRDSRLTIFEQENFLGKKGELSDDYPSLQAMGWEGNEVGSFHVHSGAWVCSQFPGYRGFQYVLECDHHSGDYKHFREWGSHAPTFQVQSIRRIQQ,disrupting interaction strength
2,MTLQCTKSAGPWKMVVWDEDGFQGRRHEFTAECPSMLELGFETVRSLKVLSGAWVGFEHAGFQGQQYILERGEYPSWDAWGGNTAYPAERLTSFRPAACANHRDSRLTIFEQENFLGKKGELSDDYPSLQAMGWEGNEVGSFHVHSGAWVCSQFPGYRGFQYVLECDHHSGDYKHFREWGSHAPTFQVQSIRRIQQ,disrupting interaction strength
3,MTLQCTKSAGPWKMVVWDEDGFQGRRHEFTAECPSVLELGFETVRSLKVLSGAWVGFEHAGFQGQQYILERGEYPSWDAWGGNTAYPAERLTSSRPAACANHRDSRLTIFEQENFLGKKGELSDDYPSLQAMGWEGNEVGSFHVHSGAWVCSQFPGYRGFQYVLECDHHSGDYKHFREWGSHAPTFQVQSIRRIQQ,disrupting interaction strength

# Variants of: B2
# Conditions: with PHC2, Q8IXK0-5
row,Variant,effect of a mutation on the interaction
1,I170V,with no effect
2,N197I,with no effect

# Variants of: B3
# Conditions: with kash5_human KASH5, Q8N6L0
row,Variant,effect of a mutation on the interaction
1,I164T,with no effect

# From IntAct's records for PubMed 25910212
